In PMC5291249:
Several values for one entry are separate records, joined by “and”; a condition that tells them apart may be missing. Equal entries are not always repeated. Where two headings read alike, the source gives them in different places.

What was measured:
Assay in all cases: cross-linking; glutaraldehyde cross-linking (0.01-0.5%, 0.025% chosen as optimal) of recombinant p53 in solution without DNA, 25°C, Tris or HEPES buffer pH 7.5, 100 mM NaCl, then 4-12% MOPS SDS-PAGE (coomassie, silver stain or immunoblot)
[1] = biological target: murine p53 mutant with the double substitution M340Q/L344R (murine) (UniProt P02340)
[2] = biological target: recombinant murine p53 (murine) (UniProt P02340)
[3] = biological target: recombinant murine p53 (murine) (UniProt P02340); remark: listed apart in the source

Row | stoichiometry N [1] | stoichiometry N [2] | stoichiometry N [3] | Substance
1 | 2 and 4 |  |  | murine p53 mutant with the double substitution M340Q/L344R (from UniProt P02340 1-390) (natural protein)
2 |  | 8 | 4 | recombinant murine p53 (from UniProt P02340 1-390) (natural protein)
